Data: PMC9695703, “Selection of an Aptamer against the Enzyme 1-deoxy-D-xylulose-5-phosphate Reductoisomerase from Plasmodium falciparum”

Tests used:
EcDXR-6His = target: T1, EcDXR-6His (Escherichia coli, UniProt P45568 1-398); experiment: bead-based flow cytometry saturation binding; protein on latex beads; Bmax 1.67; Kd: PBS pH 7.4, 60 min, dark, 0.3-5.4 uM aptamer; EMSA: 10 mM NaCl, 0.02% Tween-20, 50 mM HEPES pH 8.0, RT 60 min, 2% agarose 0.5x TB; settings: protein: recombinant; tags: C-term 6xHis; label: 5' 6FAM; folded 90/5/37 C before use
T1 sequence: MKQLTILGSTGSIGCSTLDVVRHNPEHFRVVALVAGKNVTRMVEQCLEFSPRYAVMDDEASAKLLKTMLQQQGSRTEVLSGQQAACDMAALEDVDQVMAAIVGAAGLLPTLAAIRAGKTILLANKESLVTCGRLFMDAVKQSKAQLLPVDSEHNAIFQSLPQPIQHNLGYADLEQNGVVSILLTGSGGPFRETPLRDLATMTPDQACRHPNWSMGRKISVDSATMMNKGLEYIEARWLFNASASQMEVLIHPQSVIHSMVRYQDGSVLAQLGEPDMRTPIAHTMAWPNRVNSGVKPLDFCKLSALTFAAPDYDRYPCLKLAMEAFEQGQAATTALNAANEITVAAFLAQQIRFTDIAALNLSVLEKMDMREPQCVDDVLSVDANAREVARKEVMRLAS

[1] = target: T2, 6His-GST-PfDXRt-6His (1-deoxy-D-xylulose-5-phosphate reductoisomerase) (Plasmodium falciparum, UniProt Q8IKG4 73-488); experiment: bead-based flow cytometry saturation binding; protein on latex beads; Bmax 0.79; settings: protein: recombinant; tags: N-term 6xHis-GST, C-term 6xHis; label: 5' 6FAM; folded 90/5/37 C before use
T2 sequence: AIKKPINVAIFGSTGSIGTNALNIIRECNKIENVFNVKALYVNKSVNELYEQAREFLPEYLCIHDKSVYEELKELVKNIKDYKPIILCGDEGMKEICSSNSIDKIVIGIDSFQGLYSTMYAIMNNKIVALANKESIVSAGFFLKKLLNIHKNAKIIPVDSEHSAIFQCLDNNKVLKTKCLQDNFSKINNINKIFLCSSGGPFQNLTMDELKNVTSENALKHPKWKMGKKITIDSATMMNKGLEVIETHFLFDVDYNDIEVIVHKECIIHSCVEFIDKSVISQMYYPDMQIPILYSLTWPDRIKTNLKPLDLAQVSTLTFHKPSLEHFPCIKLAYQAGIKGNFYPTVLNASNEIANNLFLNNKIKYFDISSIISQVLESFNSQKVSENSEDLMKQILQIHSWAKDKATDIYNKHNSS

B1: 6FAM-D10 (ssDNA)
DNA: ATACCAGCTTATTCAATTCACTGCCACACCACGCCCTGCCATCCGCACATCCATCGTGAGATAGTAAGTGCAATCT
Kd (EcDXR-6His): 290 ± 90 nM | Kd [1]: 260 ± 70 nM
